Results published in the supplement of paper PMC12042874.
± gives the uncertainty stated by the source.

Assay: amyloid nucleation score (Sup35N fusion, yeast selection) (log enrichment); library NNK2; higher = more nucleation; inactive = no reads after selection
Outline: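 Psi-negative yeast expressed Sup35N fused to peptides of 20 random codons. They were induced 24 hours with 100 μM copper sulfate, grown 7 days at 30°C without adenine and uracil, and their plasmid inserts from input and output were Illumina-sequenced. The nucleation score is the DiMSum log enrichment of output over input reads, centred on the mode score of non-aggregating sequences. Sequences with under 100 input reads were excluded.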
In the case of RPRAWI, the amyloid nucleation score is reported as 0.428 ± 0.44.
For RPVDPWLCRKWLVV, the amyloid nucleation score was “inactive”.
RPWHDLLNLHLYGRFMYTIG showed an amyloid nucleation score of 0.415 ± 0.37.
Substance RPWLNRAFDVISYYAIMACR has an amyloid nucleation score of 0.091 ± 0.3.
With RPWVHTGW the amyloid nucleation score was 0.277 ± 0.57.
RQDPDSLTLHRLSSGGIR gave an amyloid nucleation score of 0.366 ± 0.64.
RQFPGFSSYPTLEINFYICV gave an amyloid nucleation score of 6.76 ± 0.069.
RQGFSVSSNRLGVFQSQEPG showed an amyloid nucleation score of -1.05 ± 0.78.
Substance RRAILWPNGAN has an amyloid nucleation score of 0.097 ± 0.37.
RRFMYIFYLDYFFKPLLRLN showed an amyloid nucleation score of -0.369 ± 1.1.
With RRFPRHLASGRMPV the amyloid nucleation score was 1.41 ± 0.32.
For RRFTINFKDK, the amyloid nucleation score was -1.2 ± 0.78.
In the case of RRICTGFIRLVGYVYYAAHL, the amyloid nucleation score is reported as -0.29 ± 0.24.
In the case of RRIIQCSDEFVLYQCNMLRC, the amyloid nucleation score is reported as 0.759 ± 0.41.
Substance RRISLLFTYYVRQSLSCLIV has an amyloid nucleation score of 4.94 ± 0.086.
Substance RRLFYRRRQHNILLAYWVWY has an amyloid nucleation score of 0.524 ± 0.81.
Substance RRLSNRRWLIFCQWSFHYGV has an amyloid nucleation score of 0.242 ± 0.61.
In the case of RRQRWKRLTNF, the amyloid nucleation score is reported as “inactive”.
Substance RRSSD has an amyloid nucleation score of 1.2 ± 0.3.
Work on RRTICCCSIVCGRGNGSLDL yielded an amyloid nucleation score of 6.257 ± 0.056.
Work on RRVMRLWMALPCNDMIGCIQ yielded an amyloid nucleation score of -0.476 ± 0.37.
In the case of RRVVWSWNCLLSDMPRSHVL, the amyloid nucleation score is reported as 1.51 ± 0.13.
Substance RRVYCNIIVSGVCVSGE has an amyloid nucleation score of 1.42 ± 0.12.
For RRWDHRIHGILSISDIIFLR, the amyloid nucleation score was “inactive”.
RRYYNAQHVVVYELEVESLS gave an amyloid nucleation score of 0.453 ± 0.66.
RSCMASEYGT gave an amyloid nucleation score of -0.971 ± 0.64.
With RSCSWLLIYRIVILVG the amyloid nucleation score was “inactive”.
Substance RSDCCRDQYT has an amyloid nucleation score of -0.311 ± 1.1.
For RSDVTLDNIQMWA, the amyloid nucleation score was -1.38 ± 0.64.
For RSFGYIMLWVMIFNRIKLIF, the amyloid nucleation score was “inactive”.
Work on RSFHVEYILM yielded an amyloid nucleation score of 3.23 ± 0.068.
RSHGSQGMKSR showed an amyloid nucleation score of 1.12 ± 0.34.
Substance RSHLSTLEMSTSIGKGNPNY has an amyloid nucleation score of 0.685 ± 0.56.
For RSIISFPLFLFSIQLIPPWA, the amyloid nucleation score was -0.792 ± 0.6.
With RSLDEPSFFIPMPMYWVLGV the amyloid nucleation score was 0.271 ± 0.65.
In the case of RSLDVLTTVVMRAFNPTRLR, the amyloid nucleation score is reported as 0.953 ± 0.36.
RSLVLYSGRKVLS showed an amyloid nucleation score of -0.516 ± 0.27.
In the case of RSMFDWYKCILHDLISLQSR, the amyloid nucleation score is reported as 0.769 ± 0.47.
Substance RSNDCDDLMDHVLWGYETYR has an amyloid nucleation score of 1.08 ± 0.66.
RSNNTIFGKLFSGAILLCWV gave an amyloid nucleation score of -1.2 ± 1.
RSRRRHRLDVGSWRWCCGES showed an amyloid nucleation score of 4.08 ± 0.052.
RSSSSTMDMM gave an amyloid nucleation score of 0.85 ± 0.74.
Work on RSTERCNYTCVNWVVL yielded an amyloid nucleation score of 7.748 ± 0.048.
With RSWIFVSLIDCMEWILMNGS the amyloid nucleation score was -0.451 ± 1.
With RTDMALALQ the amyloid nucleation score was 0.973 ± 0.34.
Work on RTFAKVLKSSYQRNLPSTDV yielded an amyloid nucleation score of 0.267 ± 0.24.
RTGGNILQYFYIVRAHSGWC gave an amyloid nucleation score of 1.35 ± 0.16.
With RTHTKLGT the amyloid nucleation score was 0.462 ± 0.42.
Work on RTLHSLWHNAT yielded an amyloid nucleation score of 0.906 ± 0.35.
RTMFNLHADCERNLFWFGGW showed an amyloid nucleation score of 5.13 ± 0.065.
In the case of RTNYWVIAWIYAFGS, the amyloid nucleation score is reported as -0.716 ± 1.1.
With RTPTRILQAMLFYSRDHYSI the amyloid nucleation score was 0.218 ± 0.8.
RTSTYLCMAVNKGVFVSNSV gave an amyloid nucleation score of -0.576 ± 0.64.
Work on RTVTNEGTCFNGWLCYAREG yielded an amyloid nucleation score of 10.15 ± 0.063.
With RTYWGRKLNCVQF the amyloid nucleation score was 6.716 ± 0.04.
Work on RVCPLLYYGRDLLQLTMSSM yielded an amyloid nucleation score of 0.314 ± 0.53.
Work on RVDTYYQNL yielded an amyloid nucleation score of 5.21 ± 0.059.
With RVGQGSEACFRSWSIAGPPY the amyloid nucleation score was 2.8 ± 0.14.
RVGVIFRKYWSFRYFSCKEN showed an amyloid nucleation score of -0.59 ± 1.1.
RVHSCCTGKIGYKGVIVISV showed an amyloid nucleation score of 0.051 ± 0.43.
Work on RVIARLLMLWFHPPCSSTKR yielded an amyloid nucleation score of 6.203 ± 0.058.
For RVKYILMVQSLIFWNHILNV, the amyloid nucleation score was “inactive”.
RVLGWCSNSWMVEMSNECSW showed an amyloid nucleation score of 1.13 ± 0.3.
RVLMHHYTLANLVSLVTNFF gave an amyloid nucleation score of 5.867 ± 0.043.
For RVMGCVMGIRGWRIRIGNSG, the amyloid nucleation score was 1.42 ± 0.47.
Work on RVMRCGCIDVQAILNVIVSQ yielded an amyloid nucleation score of 9.316 ± 0.039.
RVMRLGTLEDNWGDHGLSSR gave an amyloid nucleation score of -0.583 ± 0.44.
RVNPCMTEGSLGLICSPYWY showed an amyloid nucleation score of -0.511 ± 0.22.
With RVRIYMTWFFTPIIWERWDG the amyloid nucleation score was “inactive”.
Substance RVRWYSCLVFMISTGFAFL has an amyloid nucleation score of -0.702 ± 0.76.
Work on RVSTEVFCSLLVGTHLGRGP yielded an amyloid nucleation score of 4.24 ± 0.13.
With RVWSY the amyloid nucleation score was “inactive”.
RVYEVFGQKATGQMARRSVG showed an amyloid nucleation score of 1.78 ± 0.34.
With RVYIFTCYGSSV the amyloid nucleation score was 7.997 ± 0.074.
RWAFTSFGSCLDKCYKYDYC gave an amyloid nucleation score of -0.913 ± 0.49.
For RWCSVGNLVRSITR, the amyloid nucleation score was 0.464 ± 0.57.
RWEMLPVKSHNNLRIRK showed an amyloid nucleation score of -0.293 ± 0.31.
RWICWAMCSYLRRRKKP showed an amyloid nucleation score of 0.527 ± 0.65.
With RWLDSERRTTRHLCSRGYST the amyloid nucleation score was 1.24 ± 0.38.
In the case of RWLVRTEKSS, the amyloid nucleation score is reported as 2.03 ± 0.1.
In the case of RWMRTSAGGCGSKVVWNLLG, the amyloid nucleation score is reported as 0.682 ± 0.24.
RWSYLYSKEVH gave an amyloid nucleation score of -1.28 ± 0.64.
Work on RWVRA yielded an amyloid nucleation score of 1.18 ± 0.21.
RYCLTVSKGLRSG gave an amyloid nucleation score of -0.722 ± 0.49.
RYCVDNW gave an amyloid nucleation score of 0.122 ± 0.41.
For RYFINFSSLCHQLDILWRCV, the amyloid nucleation score was -1.03 ± 0.76.
